Measured values published in the nanobody polyreactivity screen of Harvey et al. (2022).

Assay: yeast display, Sf9 membrane polyspecificity reagent, FACS + sequencing; frameworks hold sequencing errors
How it was run: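 Galactose-induced (36–48 hours) yeast carrying a synthetic nanobody display library were exposed to 10% biotinylated, detergent-solubilized Sf9 membrane reagent at 4 °C for 1 hour. FACS followed streptavidin microbead enrichment, using low and high (top ~1%) gates for expression (anti-HA) and reagent binding (streptavidin). Colony PCR, MiSeq 2 × 250 sequencing and CDR-length filtering followed. Labels for polyreactivity reflect the gate of origin.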

Sequence | polyreactivity (PSR sort gate)
QVQLVESGGGLVQAGGSLRLTCAASGRTFGKYAMGWYRQAPGKERELVAAISSSGSTNYADSVKGRFTISRDNAKNTDYLQMNSLKPEDTAVYYCAAVQPGQSTVAYDYWGQGTQVTVSS | high polyreactivity
QVQLVESGGGLVQAGGIHRLSCASTGRTFPAYAMGWYRQAPGKERELVAAITINGGYTYYADSVKGRFTISRDNAKNSVYLQMKSLKPEDTAVYYCAAYYDSPSHGYWGQVTQVTVSS | low polyreactivity
QVQLVESGGGLVQAGGSLRLSCAASGSTLSVYAKGSYIQAPGKEREFVASISSSVGRTFYADSVKGRFTISRDNANNTVYLQMNSLNQEDTAVYYCAARRRTFYASSSAINGYDYWRQGTQVTVSS | high polyreactivity
HVQLVESGGGLVQAGGSLRLSCAASVITFVPYAMGWYRQATGKERELVAAISWSGGSTYYADSVKGRFTISRDNAKNTVYLQMNSLKPEDTAVYYCAAQHDVRYDYWGQGTQVTVSS | low polyreactivity
QVQLVESGGGLVQAGGSLRLSCAASGRIFNYYAMGWYRQAPGKERELVAVISRTGVRTHYADSVKGRFTISRDIAKNTVYLQMNRLKPEDTAVDYCNADSYVFRYDYWGQGSQVTVSS | high polyreactivity
QVQLVESGGGLVQAGGSLRLSCADSGYTFYFYAMGWYRQAPGKESELVAAITGGGTTSYADSVKGRFTISRDNAKNTVYLEMNSLKPEDTAFYYCAAYAYGVWQYQYGGNYWGQGTQVTVSS | low polyreactivity
QVQLVESGGGLVQAGGSLRLSCAASGRTFRQYAMGWYRQAPGKERELVAAIRTNGGRTYYADSVKGRFTISRDNAKNTVYLQMNSLKPEDTAVYYCAVYAVVQGVLFDYWGQGTQVTVSS | high polyreactivity
QVQLVESGGGLVQAGGSLRLTCAASGRIFDTYAMVWYRQAPGKEMELVAAISRSGGRTYYADSVKGRFTISRDNANNTVYLQMNSLKPEDTAVYYCAARAYPYYWTGQKQSRFGYWGQGTQVTVSS | high polyreactivity
QVQLVESGGGLVQAGGSLRLSCAASGRIFAGYTMGWYRQAPGKERELVAAISWSGGRTYYADSVKGRFTISRDNAKYTVYLQMNSLKPEDTAVYYCNKVGWYHNYYYWGQGTQVTVSS | high polyreactivity
QVQLVESGGGLVQAGGSLRLSCAASGNIFETYAMGWYRQAPGKERELVAVITRGGSTYYADSVKGRFTISRDNAKNTVYLQMNSLKPEDTAVYYCARDAFDDWYGLTDDKSDYWGQGTQVTVSS | low polyreactivity
QVELVESGGGLVQAGGSLRLSCPASGRTFYYYAMGWSRQEPGKERELVATITKSSGSTYYADSVKGRFTISRDNAKNTVYLQMNSLKPEDTAVYYCNADPWAKTPYYYWGQGTQVTVSS | high polyreactivity
QVQLVESGGGLVQAGGSLRLSCAASGSTFGSYAMGWHRQAPGKERELVASITYSGDSSNYSDSVKGRFTLSRDNAKNTVYLQMNSLKPEDTAVYYCKARAVMTQYIQKRYDYWGQGTQVTVSS | low polyreactivity
QVQLVESGGGLVQAGGSLRLSCASSGRIFGLYAMGWYRHAPGKERELVAAITLSGDGTDYADSVKGRFTISRDNAKNTVYLQMNSLKPEDTAVYYCAKVGQYWWNMDYWGQGTQVTVSS | low polyreactivity
QVQLVESGGGLVQAGGSLRLSCAASGSILPYYAMGWYRQAPGKERELVAAISVSGGGTYYADSVKGRFTISRDNAKNTVYLQMNSLKPEDTAVYYCARNVNAQKVLGGFDSWGQGTQVTVSS | low polyreactivity
QVQLVESGGGLVQAGGILRLSCAASGITFRRSAKGWYRQAPGKERELVAGISYSGGTTYYADSVKGRFTISRDNAKNTVYLQMNSLKAEDTAVYYCAAKRISYTREGYSQYDDWGQGSQVTVSS | high polyreactivity
QVQLVESGGGLVQAGGSLRLSCAASGFIFYSYAMGWYRQAPGKERELVAAITSSGGNTYYADSVKGRFTISRDNAKNTGYLQMNSLKPEDTAVYYCNRDRKRGYPYQPYDYWGQGTQVTVSS | high polyreactivity

Sequence | polyreactivity (PSR sort gate)
QVQLVESGGGLVQAGGSLRLSCAASGRIFDCYAMGWYSQAPGKERELVAAITSRGGSTYYADSVKGRFTISRDNAKNTVYLQMNSLKPEDTAVYYCAKRSTSRGYDYWGQGTQVTVSS | high polyreactivity
QVQLVESGGGLVQGGGSLRLSCAASGNILRIYAMGWYRQAPGKEREFVAAIRQSDGRTYYADSVKGRFTISRDNAKNTVYLQMNSLKPEDTSVYYCAADVYQEYDYWGQGTQVTVSS | high polyreactivity
QVQLVESGGGLVQAGGSLRLSCAASGSTFYYAIGRYRQAPGKERELVASITFSTGSTYYADSVKGRFTISRDNAKNTVYLQLNSLKPEDTAVYYCATGVDTYSLTVEHDSWGQGTQVTVSS | low polyreactivity
QVQLVESGGGLVQAGGSLRLSCAASGRIFYYYVMGWYRQAPGKERELVAVIDWSGGSTYYADSVKGRFTISRDNAKNTVYLQMNSLKPEDTGVYYCAKVWLKFSLAYEDYDYLGQGTQVTVSS | low polyreactivity
QVQLVESGGGLVQAGGSLRLSCAASGLIFLYYAMGWYRQAPGKERELVAAISSSGSTYYADSVKGRFTISRDNAKNTVYLQMNSLKPEDTAVYYCAAAGYLYPYRYYYWGQGTQVTVSS | high polyreactivity
QVQLVESGGGLVQAGGSLRLSCAASGRIIGYYAMGWYRQAPGKERELVAAISRRGGSTYYADSVKGRFTISRDNAKNTVYLQMNSLKPEDTAVYYCATLTLESFSALYYWGQGTQVTVSS | low polyreactivity
QVQLVESGGGLVQAGGSLRLSCAASGYTFGIYTLGWYRQAPGKERELVADISSTGTTKYADSVKGRFTISRDNAKYTVYLQMNSLKPEDTAVYYCAVRPFWYRMDYWGQGTQVTVSS | low polyreactivity
QVQLVESWGGLVQAGGSLRLSCAASGSIFRGYAMGWYRQAPGKGRELVAAISWSGASTYYADSVKGRFTISRDNAKNTVYLKMNSLKPEDTAVYYCAAVQWTGYPFDYWGQGTQVTVSS | high polyreactivity
QVQLVESGGGLVQAGGSLRLSCAASGSIFLNNAMGWYRQAPGKERELVAAITRNVGSTYYADSVKGRFTISRDNEKNTVYLQMNSLKPEDTAVYYCAADRRRRYDYWGQGTQVTVSS | low polyreactivity
QVQLVESAGGLVQAGGSLRLSCAASGIIFTYYAMGWYRQAPGKERELVAAISSSSGSTYYADSVKGRFTISRDNAKNTVYLQMNSLKPEDTAVYYCAAAFSQYSTSYYYWGQGTQVTVSS | high polyreactivity
HVQLVESGGGLVQAGGSLRLSCAASGSIFAKNAMGWYREAPGKERELVAGIDFSGGSTYYADSVKGRFTISRDNAKNTVYLQMNSLKPEDTAVYYCAADWAYKYELDYWGQGTQVTVSS | low polyreactivity
QVQLVESGGGLVQAGGSLRLSCAASGSIITVNAMGWYRQAPGKEREFVAGITSIGGRTYYADSVKGRFTISRDNAKNTDYLQMNSLKPEDTAVYDCNKRTYRARYDYWGQGTQVTVSS | high polyreactivity
QVQLVESGGGLVQAGGSLRLSCAASGSTFAYNAMGWYRQAPGKERELVAVITWSDDRTYYADSVKGRFTISRDNAKNTVYLQMNSLKPEDTSVYYCAADRSGYWHYYTPYDYWGQGTQVTVSS | low polyreactivity
QVQLVESGGGLVQAGGSLRLSCAASGFTFGKYDMGWYRQAPGKERELVATITSSGDSTYYADSVKGRFTISRDNAKNTVYLQMNSLKPEDTAVYYCATPYGRHGWFYLYDYWGQGTQVTVSS | low polyreactivity
QVQLVESGGGLVQAGGSLRLSCAASGRTFNYYAMGWYRQAPGKERELVAAISWGGGRTYYADSVKGRFTISRDNAKNTVYFQMNSLKPEDTAVFDCAARYLQLGLAYYYWGQGTQVTVSS | high polyreactivity
QVKLVESGGGLVQAGGSLLLSCDASGIIFKYYAMGWYRQAPGKERELVARITARGGRTYYADSVKGRFTISRDNAKNTVYLQMNSLKPEDTAFYYCAKKLRGWHTIITDYDYWGQGTQLTVSS | low polyreactivity
